Among the data in PMC4460869 are proportion of viable BmAPN4-expressing Sf9 cells after PC, counted in 50 optical fields and release of total intracellular LDH from BmAPN4-transfected Sf9 cells into the medium after trypsin-activated PC, 6 h; untransfected Sf9 cells not affected values, retold here.

This experiment concerns the target GST-tagged BmAPN4 (silkworm aminopeptidase N 4) (Bombyx mori).

Turning to “trypsin-activated parasporal crystal toxin (PC) from Bacillus bombysepticus (domain or fragment)”, the proportion of viable BmAPN4-expressing Sf9 cells after PC, counted in 50 optical fields worked out at 15.8% and the release of total intracellular LDH from BmAPN4-transfected Sf9 cells into the medium after trypsin-activated PC, 6 h; untransfected Sf9 cells not affected came to 35.3%.
